Measured values published in patent US20250388669A1 (published 2025).
Values belong to the binder of their own block, whether it stands above or below them.

Assays:
[1] = biological target: CD137 (binding assay) (UniProt Q07011 24-186, limits assumed); experiment: FCM or ELISA, graded
[2] = biological target: PD-1 (binding assay) (UniProt Q15116 25-167, limits assumed); experiment: FCM or ELISA, graded
[3] = biological target: T1, PD-L1 (human, UniProt Q9NZQ7 19-238, limits assumed); experiment: PD-L1 binding, FCM or ELISA
T1 construct: In the reporter assay it is on Raji cells expressing human PD-L1
T1 sequence (Q9NZQ7 19-238 limits assumed): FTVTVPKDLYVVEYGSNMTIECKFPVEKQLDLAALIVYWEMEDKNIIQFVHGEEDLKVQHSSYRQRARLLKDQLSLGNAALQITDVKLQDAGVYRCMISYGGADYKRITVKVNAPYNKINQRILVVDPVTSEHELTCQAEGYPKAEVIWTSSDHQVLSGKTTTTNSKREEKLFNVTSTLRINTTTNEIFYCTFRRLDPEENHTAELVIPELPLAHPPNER

[4] = biological target: T2, PD-L1 (human, UniProt Q9NZQ7 19-238, limits assumed); experiment: PD-L1 binding (FIG. 14A; method not specified); reference antibody
T2 construct: The reporter assay used Raji cells expressing human PD-L1
T2 sequence (Q9NZQ7 19-238 limits assumed): as above

Sequence of PD-1 (binding assay) (Q15116 25-167 limits assumed): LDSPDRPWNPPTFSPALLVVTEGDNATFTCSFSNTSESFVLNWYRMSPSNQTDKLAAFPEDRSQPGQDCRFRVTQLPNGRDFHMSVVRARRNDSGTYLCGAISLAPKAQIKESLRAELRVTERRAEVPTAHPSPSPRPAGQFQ

binding result [1]: binds
binding result [2]: binds
B1: Ly2396 (bispecific antibody, human IgG1, kappa)
heavy 1: QVTLKESGPALVKPTQTLTLTCTFSGFSLSTSGTCVSWIRQPPGKALEWLATICWEDSKGYNPSLKSRLTISKDTSKNQAVLTMTNMDPVDTATYYCARREDSGYFWFPYWGQGTLVTVSSASTKGPSVFPLAPSSKSTSGGTAALGCLVKDYFPEPVTVSWNSGALTSGVHTFPAVLQSSGLYSLSSVVTVPSSSLGTQTYICNVNHKPSNTKVDKKVEPKSCDKTHTCPPCPAPEAAGPSVFLFPPKPKDTLMISRTPEVTCVVVDVSHEDPEVKFNWYVDGVEVHNAKTKPREEQYNSTYRVVSVLTVLHQDWLNGKEYKCKVSNKALPAPIEKTISKAKGQPREPQVYTLPPSREEMTKNQVSLWCLVKGFYPSDIAVEWESNGQPENNYKTTPPVLDSDGSFFLYSKLTVDKSRWQQGNVFSCSVMHEALHNHYTQKSLSLSPGGGGGSGGGGSGGGGSGGGGSQVQLVQSGAEVKKPGASVKVSCKASGYTFAGFEMHWVRQAPGQGLEWMGAIDPKTGGTDYNQKFKDRVTMTRDTSISTAYMELSRLRSDDTAVYYCARDLGYFDVWGQGTLVTVSS
heavy 2: QVTLKESGPALVKPTQTLTLTCTFSGFSLSTSGTCVSWIRQPPGKALEWLATICWEDSKGYNPSLKSRLTISKDTSKNQAVLTMTNMDPVDTATYYCARREDSGYFWFPYWGQGTLVTVSSASTKGPSVFPLAPSSKSTSGGTAALGCLVKDYFPEPVTVSWNSGALTSGVHTFPAVLQSSGLYSLSSVVTVPSSSLGTQTYICNVNHKPSNTKVDKKVEPKSCDKTHTCPPCPAPEAAGPSVFLFPPKPKDTLMISRTPEVTCVVVDVSHEDPEVKFNWYVDGVEVHNAKTKPREEQYNSTYRVVSVLTVLHQDWLNGKEYKCKVSNKALPAPIEKTISKAKGQPREPQVYTLPPSREEMTKNQVSLSCAVKGFYPSDIAVEWESNGQPENNYKTTPPVLDSDGSFFLVSKLTVDKSRWQQGNVFSCSVMHEALHNRFTQKSLSLSPGGGGGSGGGGSGGGGSGGGGSDIQMTQSPSSLSASVGDRVTITCRASQDIRSNLNWYQQKPGGAVKLLIYYTSRLHSGVPSRFSGSGSGTDYTLTISSLQPEDFATYFCQQSEKLPRTFGGGTKVEIR
light: NIQMTQSPSSLSASVGDRVTITCKAGQNVNNYLAWYQQKPGKAPKVLIFNANSLQTGVPSRFSGSGSGTDFTLTISSLQPEDFATYYCQQYNSWPTFGGGTKVEIKRTVAAPSVFIFPPSDEQLKSGTASVVCLLNNFYPREAKVQWKVDNALQSGNSQESVTEQDSKDSTYSLSSTLTLSKADYEKHKVYACEVTHQGLSSPVTKSFNRGEC
notes: PD-1 Fabs (Ly516) x terminal CD137 Fv

binding result [3]: binds
B2: Ly076 (antibody, V domains shown)
VH: QVQLVQSGAEVKKPGASVKVSCKASGYTFTDFWMSWVRQAPGQGLEWMGQIYPNTGTTHSNEKFKGRVTMTRDTSTSTVYMELSSLRSEDTAVYYCARSYHISTTPNWFAYWGQGTLVTVSS
VL: DIQMTQSPSSLSASVGDRVTITCKASQNVYKKLEWYQQKPGKVPKVLIYHTNILQTGVPSRFSGSGSGTDYTLTISSLQPEDVATYYCYQWNSGPTFGGGTKVEIK
notes: Parent mAb; also called Anti-PD-L1 Ly076; parent anti-PD-L1 antibody

binding result [4]: binds
B3: Ly076 (antibody, V domains shown)
VH: B2 VH
VL: B2 VL
notes: Parent mAb; also called parent anti-PD-L1 antibody
